Test results reported in paper doi:10.1101/2020.03.27.012328 (bioRxiv, 2020).

Molecular target: CID1R^ML (maximum likelihood reconstructed ancestral CID from the time of the first whole genome duplication)
Assay: ITC

Binder: TPPQALQQLLQTLKSPSSPQQQQQVLQILKSNPQLMAAFIKQRSQHQQ (domain or fragment) [NCBDD/P of the ITC example in Figure S1e (label lost)]
- Kd: 2900 ± 100 nM
